B1: Chromodomain-helicase-DNA-binding protein 5, residues 338 to 390; numbered along this chain, Q8TDI0 (parent)
chain: YETDHQDYCEVCQQGGEIILCDTCPRAYHLVCLDPELEKAPEGKWSCPHCEKE

± gives the uncertainty stated by the source.

The variants in this data set derive from B1. Briefly: abundance fitness (aPCA) (normalised: wild type 0, dead -1); higher = more abundant; growth selection in yeast, the domain comes from the species named. Conditions: Homo sapiens.
For Q14F, the abundance fitness was -0.295 ± 0.14.
Regarding Q14A, the abundance fitness is -0.093 ± 0.17.
As for Q14C, the figure is -0.378 ± 0.12.
As for Q14H, the figure is -0.105 ± 0.17; as for Q14D, -0.004 ± 0.17.
As for E53L, the figure is 0.022 ± 0.29; as for E53K, -0.173 ± 0.4; as for E53G, 0.086 ± 0.13.
Regarding E53C, the abundance fitness came out at 0.222 ± 0.23.
For E53A the value was -0.246 ± 0.16; for I18D, -0.172 ± 0.17.
For I18P the value was -0.228 ± 0.17.
As for I18H, the figure is 0.03 ± 0.18; as for I18W, -0.02 ± 0.12.
Regarding I18A, the abundance fitness was 0.177 ± 0.12.
I18Y: the abundance fitness was determined as 0.145 ± 0.18.
I18M: the abundance fitness was determined as 0.007 ± 0.14.
For L37K the value was -0.04 ± 0.2.
As for L37F, the figure is -0.147 ± 0.35; as for L37G, 0.032 ± 0.11.
As for L37W, the figure is -0.496 ± 0.13.
In the case of L37T, the abundance fitness is 0.101 ± 0.13.
As for Y28G, the figure is -0.125 ± 0.092.
On to Y28Q, for which the abundance fitness was -0.709 ± 0.19.
As for Y28M, the figure is -0.148 ± 0.16; as for W45I, -0.146 ± 0.18.
For W45E the value was -0.202 ± 0.14; for W45F, -0.05 ± 0.17.
For W45K the value was -0.046 ± 0.22.
As for L20T, the abundance fitness came to 0.258 ± 0.14.
For L20I the value was -0.095 ± 0.15; for L20Q, 0.414 ± 0.16.
For C9E the value was -0.611 ± 0.15; for C9K, -0.804 ± 0.18; for C9N, -0.764 ± 0.21.
Take C9T: the abundance fitness is -0.643 ± 0.13.
For G43E the value was 0.029 ± 0.15; for G43F, -0.138 ± 0.14.
Regarding G43W, the abundance fitness is -0.223 ± 0.14.
As for C12R, the figure is -1 ± 0.12; as for C12L, -0.901 ± 0.1.
As for S46D, the figure is -0.197 ± 0.14; as for S46N, -0.056 ± 0.3.
As for S46P, the figure is -0.109 ± 0.13.
As to S46M, the abundance fitness was -0.266 ± 0.15.
As for S46V, the figure is 0.011 ± 0.1; as for S46C, 0.073 ± 0.2.
For S46H the value was -0.203 ± 0.22; for T3Y, 0.171 ± 0.19; for T3D, 0.023 ± 0.23.
For T3I the value was 0.465 ± 0.22.
Regarding A40F, the abundance fitness turned out to be 0.3 ± 0.16.
On to A40V, for which the abundance fitness is -0.033 ± 0.1.
As to A40P, the abundance fitness is -0.023 ± 0.15.
For P48Q the value was -0.087 ± 0.17; for D4N, 0.106 ± 0.13.
As for D4Y, the abundance fitness was -0.337 ± 0.37.
As for D4W, the figure is -0.014 ± 0.11; as for H29Y, -0.719 ± 0.18; as for H29C, 0.053 ± 0.16.
For H29K the value was -0.793 ± 0.17.
As for H29F, the figure is -1.07 ± 0.39; as for H29N, -0.766 ± 0.32.
Take E2G: the abundance fitness was found to be 0.072 ± 0.1.
As for E2I, the figure is 0.814 ± 0.25; as for E2M, 0.789 ± 0.31.
In the case of T23M, the abundance fitness was found to be 0.114 ± 0.17.
For T23W the value was -0.443 ± 0.17; for T23E, 0.026 ± 0.17.
As for H5S, the figure is 0.293 ± 0.1; as for H5N, -0.072 ± 0.17; as for H5V, 0.464 ± 0.088.
As for E38K, the figure is -0.199 ± 0.22.
E38V: the abundance fitness was -0.157 ± 0.12.
For E38S the value was -0.225 ± 0.14; for E38W, -0.127 ± 0.15; for E38T, -0.252 ± 0.17.
For E38A the value was -0.024 ± 0.13; for P25K, 0.109 ± 0.21; for P25E, -0.287 ± 0.21.
Take A27I: the abundance fitness was -0.021 ± 0.21.
For A27L the value was -0.204 ± 0.13.
For A27S the value was -0.133 ± 0.12.
For A27F the value was -0.027 ± 0.14; for D7H, -0.296 ± 0.36.
For the variant D7K, the abundance fitness was -0.313 ± 0.15.
Consider D7M, for which the abundance fitness was determined as 0.167 ± 0.21.
For D7R the value was -0.154 ± 0.14; for D7V, 0.096 ± 0.12.
For C24E the value was -0.979 ± 0.21.
With C24L, the abundance fitness is -0.682 ± 0.13.
As for C24D, the figure is -1.16 ± 0.35; as for E17N, 0.2 ± 0.2; as for E17L, -0.096 ± 0.12.
For E17D the value was -0.182 ± 0.16.
D22M: the abundance fitness was -0.185 ± 0.14.
As for V11D, the figure is 0.018 ± 0.15; as for V11Y, 0.033 ± 0.14; as for V11H, 0.691 ± 0.15.
For V11C the value was 0.179 ± 0.17.
As for L33Y, the figure is 0.064 ± 0.17; as for L33G, -0.389 ± 0.12.
On to V31F, for which the abundance fitness was determined as 0.047 ± 0.15.
As for V31Y, the figure is -0.368 ± 0.2.
As for V31P, the figure is 0.106 ± 0.16; as for V31R, -0.27 ± 0.11.
For Y8E the value was 0.306 ± 0.12.
On to Y8R, for which the abundance fitness amounted to 0.211 ± 0.1.
Take K52I: the abundance fitness is -1.1 ± 0.42.
Regarding K52H, the abundance fitness worked out at 0.223 ± 0.3.
For R26V the value was -0.207 ± 0.13.
In the case of R26Y, the abundance fitness was -0.144 ± 0.19.
For R26S, the abundance fitness came out at 0.002 ± 0.1.
As for R26H, the figure is 0.493 ± 0.19; as for R26F, -0.211 ± 0.17; as for G15K, 0.155 ± 0.16.
For G15C the value was 0.021 ± 0.14; for C21F, -1.22 ± 0.28.
For C21K the value was -0.805 ± 0.2.
Consider C21P, for which the abundance fitness was -0.907 ± 0.2.
For C21L the value was -0.872 ± 0.15; for Q6L, -0.286 ± 0.11; for E36G, 0.014 ± 0.11.
As for E36H, the figure is -0.18 ± 0.14; as for E36D, 0.139 ± 0.16.
For E36Q the value was 0.046 ± 0.13; for H49P, -0.024 ± 0.26.
Take E42M: the abundance fitness amounted to 0.138 ± 0.16.
For L30A the value was 0.094 ± 0.1; for L30M, 0.095 ± 0.087; for L30H, -0.194 ± 0.26.
As for L30N, the figure is -0.047 ± 0.19; as for E10F, 0.256 ± 0.17; as for E10A, -0.064 ± 0.1.
For E10Q the value was 0.024 ± 0.13.
Consider E10H, for which the abundance fitness was -0.394 ± 0.2.
For E10D the value was -0.14 ± 0.18.
For E10R the value was 0.043 ± 0.11; for G16V, -0.17 ± 0.1; for G16I, -0.195 ± 0.28.
For the variant I19P, the abundance fitness is -1.07 ± 0.21.
For C47M the value was -0.945 ± 0.17; for C47T, -0.43 ± 0.14.
As for C47Q, the figure is -0.918 ± 0.2; as for Y1S, -0.481 ± 0.38; as for K39I, -0.045 ± 0.24.
As for K39T, the figure is -0.029 ± 0.18.
For K39L, the abundance fitness was -0.002 ± 0.14.
As for D34R, the abundance fitness was -0.125 ± 0.11.
As for D34Y, the figure is -0.269 ± 0.25; as for C50E, 0.025 ± 0.14.
With C50A, the abundance fitness is -0.503 ± 0.13.
As for C50W, the figure is -0.718 ± 0.18; as for Q13D, -0.191 ± 0.13.
For Q13P the value was -0.097 ± 0.14.
For Q13S the value was 0.157 ± 0.094.
Consider E51H, for which the abundance fitness was -0.367 ± 0.23.
As for E51Q, the figure is -0.005 ± 0.15; as for E51K, 0.031 ± 0.2; as for E51A, -0.12 ± 0.093.
Turning to E51P, the abundance fitness is -0.367 ± 0.15.
For K44I the value was -0.32 ± 0.21; for K44H, -0.341 ± 0.22; for K44N, -0.237 ± 0.2.
For P35W the value was -0.428 ± 0.19; for P35C, -0.313 ± 0.21; for P35R, -0.096 ± 0.12.
